{
  "source": "the DeepSol protein solubility set",
  "data": [
    {"experiment": "soluble on expression in E. coli; label from the status in PepcDB or PDB records", "values": [
      {"sequence": "MSLDIQIQYSTDWKEEFLKRLEDGGPWSNWEMGKLAYEAANYQVIPEFHGLQAPKHLPQLQPFPHQMEVAQTVIEQMNGKAILADEVGLGKTIEAGLILKEYMIRGLAKKVLILVPASLVSQWAYELSSKFYIPAIPQKKAYVWEQYDVVVASIDTAKRQPHRDIVLNQHYDLVIIDEAHKLKNPKTKNYAFIKSLKRKYCLLLTATPVQNKLEEIFNLVSLLKPGHLGDLESFEKEYRANKRAPKNEDKLKELVNKVMVRNRREETGIEWTKRIVQTVPITFSEGERAFYHAITKLKQQPDVMTNSFSLLTLQREICSSREAAFMTLKNMITKLEQEGRTSPILESLIEQVGTIEGHAKAEKALELIQQINDKVIIFTEYRATQLYLQWYLKQHGISSVPFRGGFKRGKKDWMRQLFENRAQVLIATEAGGEGINLQFCHHIINYDLPWNPMRIEQRIGRIHRLGQTEDVRIYNFAVKDTIEEQILTLLYEKIQLFERVVGELDDILTKMNVGSIEEHIRDIFVHSDSEGEMKIKLDHLSAIMNDVANEKEEDHATGATASVSDALLEGHHHHHH", "soluble on expression in E. coli": "not soluble"},
      {"sequence": "MGSDKIHHHHHHMSDSIYSIGTQGQPWTDEDKDLWLSKQVIKRSYQDEVLSKFESVTSSFDMIQYGSLSIDESRYPLYAMRSKNWQSKNKTVLVTGGVHGYETSGVQGAIRFLETSAKDFSQRFNIIVVPCVSPWGYETINRWNNEAIDPNRSFYLDSPAQESAALMSFINELDVNIAMHIDLHETTDTDNSEFRPALAARDAIEQKNWNIPDGFYLVGDSTKPAADFQGAINQAVAKVTHIAPEDSNGKLIGVDIEQFGVINYAGRELGLCMGLTDAPYVTTTEVYPDSPLVDDENCITAQVAAISAAITFI", "soluble on expression in E. coli": "not soluble"},
      {"sequence": "MLTEEKVLAALNRVKDRDLNKSIVETGGIRELKISGANVSVKVALAQTGTREQMEIQQEIVNVLKGEGAESVGLRFDQLDETEIEKLGGLPKQEFHGPPLLHPNTSTTFIAVTSGKGGVGKSTVSVNLATTLARLGKKVGIIDADIYGFSVPDMMGIEERPKVVGEQIFPVERFGVKVISMGFFVEDNAPVIWRGPMLGKMLNNFFAEVEWGDLDYLILDLPPGTGDVALDIHTMLPHSKEILVTTPHATAAFVAARAGAMALKTHHEIIGVVENMAYFESKITGEKEYVFGQGGGERLAEELKTEVLGRIPLGQPEIDEDDFAPSVYGATHPIGEIYTAIAKRVIDKTTLEHHHHHH", "soluble on expression in E. coli": "soluble"},
      {"sequence": "MGSDKIHHHHHHMRIAIVTHVVRHNDGQGRVNYEIARAALAENYEVTLVASHVAPELLADPRVRWVPVKVGRFWPSNLVKQQVFALKSAWWLRAHRGEYDVLHVNGFISWISADVNTAHFVHGGWFKSPYYPFGLTKGMWSAYQYVYTRVNTALERWAYRRSRAITAVSQKVADEIAGLGIDSRKISVIYNGVDGSAFAGAQPDRAAFKLPDDAFLLLFVGDLRTPRKNLGTVLKALTKLPANVHLAVAGYLPGSPYPDEARALGIDSRVHFLGLVKNMPTLMSSVDAYVFPSRYEAMSLSLLEAMAAGLPVVTARTAGGAEIITRECGIVLEDPDDPAALAQAIGSLAASRDTCRAMGDAARELMTRFGWAHMGAQYVALYRRIGQPTQPSAFERVEHAVTQEQS", "soluble on expression in E. coli": "not soluble"},
      {"sequence": "MAHHHHHHMFMVDTDGSAISYHIPVSPFVPLQHDKIDVTTVNRLANFGMRFAMEHGWCYNRHSGDAHSNYASEAVEEGYVESGEDVTVFFAGVDVELVGEFPKFDGKITPASVFFLGQFWISHVGKSSFGVYGKIFRYEAADEKNKFPIGVFKLTGVNVSKKSRRPVPIPKERAEMLLETMRRHQLNTSLPLVVRIDVADFLSRSGLFTDTTYCKLVDKMATYASVTPLTVTYRREFHIRQSDIDFNRHVNQMALIQFVINTFRSALLDQTTVFPRLLDVGVDAIVGDLLLRRLHIDYIRETPMGHQSVAVALFFAEDSSRDAVIASTPESRGNQLAELCFLAQGIPGDGSPSYIAAVGKLYFFC", "soluble on expression in E. coli": "not soluble"},
      {"sequence": "MGSDKIHHHHHHMSTNHGANLYSLSSKYGFSKEEFMDFSSNINPFGTSSLAKQYIVNNIDMVSMYPDPDYIDLKTSISNYCKCSIDNIVLGSGATELISSFIHTINPKQALLLSPAYSEYEKELSKINCSIEKYFAKEEDNFHINLENLIKTINAKDYDLVVICNPSNPTGFAFTKVEVREILKNTDSFLMIDETYVEFTDTDTYSCTQLVDDYSNLFVIRGTSKFFSTPGIRLGYGLISNTNVKNEINKNLDLWNINIIASKMGEIMFSDLDFISNTISLMNTERDYLLKELKNIKSLDIYNTKGNFILCKIKTKELTAKSLREQLLPQKIIIRDCCSFKGLDEYFFRVCILKPNENKLLISSLKSIFK", "soluble on expression in E. coli": "not soluble"},
      {"sequence": "MGSDKIHHHHHHMPILLLAQSDAHLSLGAAQGPGAELDRRACEQLDIPVLRRPLGGGVVWVDPGQLNYFFIFPAAAGVRRAPELFDRIAPWVLAVHAHFGLEVEVRGGQDFWCRGRKIGGTGAASIGHSLVLGGSFILEAQWTSFADCVAAPSAGFRAWLKEALEEDLGSWSRLLGRVVGPEVVLDACPALLHAAGWDVVVTRPTEAERRAMTQVELEDVDWEQPVRRRVRAGIKLKAGAFLTEQHWPDGHWLRVWTENGTFRRIAGSAWSAGQGDTLTGLQPGSERFDERLREMAGAGAALWGERLSETAVWAD", "soluble on expression in E. coli": "not soluble"},
      {"sequence": "MEENSADIENRPVAAFRPAVSVPMPVLPQDGEVFVGPGGKKDAQKIGLGLSKLSSKRKDDIQMAKKYAMDISIKQILLRQQKQQQENQQRQQMYSQALSIMSRIYVGSISFEIREDMLRRAFDPFGPIKSINMSWDPATGHHKTFAFVEYEVPEAALLAQESMNGQMLGGRNLKVNSMMFQEMRLPQNMPQAQPIIDMVQKDAKKYFRVYVSSVHPDLSETDLKSVFEAFGEIVKCQLARAPTGRGHRGFGYLEFNNLTSQSEAIAGMNMFDLGGQYLRVGKCVTPPDALTYLQPASVSAIPASVSVACAAITAKVMAAEAAAGSSPKTPSESGGSRAASPAPRAQSPATPSSSLPTDIENKAVISSPKKEPEEIEVPPLPPSAPDVVKDEPMEIEEEEEYTIPEEKPKPVAIVPPPGLAIPSLVAPPGLIAPTEIGIVVPNPSFLAQQQQKIEEKIEEEEEARTERVKLSTSQRKKMKREKLNQMTFEEKMAQVLGQQKAVQNQRMADPVTFGALDDTVAWKDPSNEDQTSEDGKMLAIMGPGRGGDNVASMALALMDGGSSLMLANNAKAKEAAAALALEPKKKKKVKEGKKIQPKLNTAQALAAAAKAGEMSDALKNEVMNSEDASLASQEGLEIRGNDARHLLMTKLMRTNRSNVIVLRNMVTPQDIDEFLEGEIREECGKYGNVIDVVIANFASSGLVKIFVKYSDSMQVDRAKAALDGRFFGGNTVKAEAYDQILFDHADYTG", "soluble on expression in E. coli": "not soluble"},
      {"sequence": "MVDTHKLADDVLQLLDNRIEDNYRVCVILVGSPGSGKSTIAEELCQIINEKYHTFLSEHPNVIEVNDRLKPMVNLVDSLKTLQPNKVAEMIENQGLFKDHVEDVNFQPVKYSALTSNNEECTAVVARGGTANAIRIAAVDNPVNVNKLAQDSINIAQIVPMDGFHLSRRCLDLFKDPQTAHKRRGSPSTFDSNNFLQLCKILAKTSLCKVSSHHKFYSTSSVFEKLSKTFSQTIPDIFVPGFNHALKDPTPDQYCISKFTRIVILEGLYLLYDQENWKKIYKTLADTGALLVYKIDIDYEATEERVAKRHLQSGLVTTIAEGREKFRSNDLLNGRDIDNHLIKVDNIVHIRNDHHHHHH", "soluble on expression in E. coli": "soluble"},
      {"sequence": "MSRFSITYKHDFYGGVEGEVTGGSALLCCPQEDIKSFLSEPVYSRLCASAWALTIECPSDPRTPSGTPGPLGTVPWRWGSLGMGGPLLPTAPTPRERERRGGQPAQRWSAEEGQEGSADGEAEATQELILAVVQEGAEGQCQGQGRKLLLQRGAHDPVTVHRAFKKEVGLGQVQLIPKGGTGVLHPGAGLKLHTHLQLVTGFVVIRRMHACLAQRYCSQPVVQCVFPS", "soluble on expression in E. coli": "not soluble"},
      {"sequence": "MGSDKIHHHHHHMVKVEIDEGSGFCFGVVTAIHKAEEELAKGVTLYCLGDIVHNSREVERLKEMGLITINHEEFKQLHNAKVLLRAHGEPPETYIIAKENNIEIIDATCPVVLRLQKRIKQEYMQEDLDEKQIVIYGKNGHAEVLGLVGQTTGKAIVIEKLDEARRLDFSKSIRLYSQTTKSLDEFWEIVEYIKEHISPDVTFEYYDTICRQVANRMPNLRKFAASHDLIFFVSGKKSSNGKMLFEECKKVNPNSHLIDSADEIDDSLLPGVNSIGVCGATSTPKWLMEEISEAIKAQIKRQ", "soluble on expression in E. coli": "not soluble"},
      {"sequence": "MAEGNTLISVDYEIFGKVQGVFFRKHTQAEGKKLGLVGWVQNTDRGTVQGQLQGPISKVRHMQEWLETRGSPKSHIDKANFNNEKVILKLDYSDFQIVG", "soluble on expression in E. coli": "soluble"}
    ]}
  ]
}
